Assay results from PMC5478280.

What was measured:
[1] = biological target: Csy complex with Cas7f K85A (P. aeruginosa (strain PA14)) (UniProt Q02ML9); assay: SPR
[2] = biological target: Csy complex (type I-F crRNA-guided surveillance complex), wild type (P. aeruginosa (strain PA14)) (UniProt Q02ML9); assay: cryo-EM structure

kd1 (dissociation rate) [1]	stoichiometry N [2]	Substance
0.00031 s⁻¹	2	anti-CRISPR protein AcrF1 (natural protein)
–	1	anti-CRISPR protein AcrF2 (natural protein)
